Test: label from the status in PepcDB records

Sequence: MIKEWATVVSWQNGQAVVSCDVKASCSSCASRAGCGSRVLNKLGPQTTHTIVVPSAEPLAPGQKVELGIAEKSLLGSALLVYMSPLAGLFLCAALFQMLFGSDLAALSGAVLGGVGGFLVARGYSRKLAERDAWQPVILNVALPPDLVRVETTSIETRQ
- protein production: failed

Sequence: MIKGTGHMIVNIANDRGMSIDSIRKTIKESVLIAYKKYFGSNENAFIKFDDDTGDLSVYAKKKIVKEVKDSLLEILEKDISKENIVEGDYAYIEINPKVFDRLSIQVAKQRTKNDLQGIEDNEILSEFKSKLNKVVIGYVQQNRNGDLYVNLGLEHHHHHH
- protein production: not failed

Sequence: MIKHPLKILFMHGLDSSRESTKFHAIESTNKFCITIDYRNLSYNTVADFYQNTIETIQPDLLIGHNLGGYWALKLSSQYHLAAIVANPSLAPLFRDDYPSLTSKELDTDSPKIAYIELGDESLNMYDIQNVLEDYMIVDSIEGGHHRLENPSKLNILIDHIQSEYFSHTIR
- protein production: failed

Sequence: MIKIVTDNFLYEKEKVLALRYMYDSAKKPGITIITVTNKQKYIKNIMDNFRRCLYPKKEFIIILNDTKLQTSLYKNYFSKTKNLKLFKVDSSYSLGECLNLAISKSNYNYIAKMDDDDYYGSHYILDSMNAFNYTDASIIGKATHFIYFEDRTLLNLWCQGNENTYATSVAGATFVMKKSIFNKVKFNSLNNGEDIDLLSQCNNLGIKIYSCSKFNYVYNRHASPDNHSWKISNDLLVKRSIKLCITKSYKRIVHILEHHHHHH
- protein production: failed

Sequence: MIKLIATDIDGTLVKDGSLLIDPEYMSVIDRLIDKGIIFVVCSGRQFSSEFKLFAPIKHKLLYITDGGTVVRTPKEILKTYPMDEDIWKGMCRMVRDELPACDYFAATPDFCFAEDGGSPIFHLLRDSYGFEMREVDDITRLDRNDIIKFTVFHPDKCEELCTPVFIPAWNKKAHLAAAGKEWVDCNAKGVSKWTALSYLIDRFDLLPDEVCCFGDNLNDIEMLQNAGISYAVSNARQEVIAAAKHTCAPYWENGVLSVLKSFL
- protein production: not failed

Sequence: MIKSILDYLLTLHPVLLGLLGSTFTWFTTAFGAAAVFFFRKVDNKIMDAMLGFSAGIMIAASFFSLIQPAIERAEELGYITWVPAVFGFLVGAFFIYIVDVFVPDLDKLTFIDEDLTKHGKKDFLLFTAVTLHNFPEGLAVGVAFGALASNPDIQTLVGAMLLTLGIGIQNIPEGAAISLPLRRGNVALAKCFNYGQMSGLVEIVGGLMGAYAVYSFTRILPFALAFSAGAMIYVSIEQLIPEAKRKDIDNKVPSIFGVIGFTLMMFLDVSLG
- protein production: failed

Sequence: MILELQNAILEMIAKGEPLAATIEQLCLKVEAAVPGIIASVLTFDGSRLHTLAGPSLPPDYSAAVDNLEAGPLAGSCGAAAYFGEAVVVTDIETDPRWQDFKSLVLPLGLKACWSSPIKRGERVIGSFAFYYRDHRGPKALERDLVEACVHLCTIAIDREERVMERQRLTYSDALTGLSNRARFNQLLAEDLPRSGRAWGILLVDIDNLKLVNDTFGHAAGDALIQVVADRVATTAGSQNTFRLGGDEFAVIVSDDKDLDLNARATDILKALSSPSTCDGHVVFPAATIGGALAETETNPDQTRQNADLALYHAKEHNRGRYVQHYPGLGTALTRRFRAVRDVGVALEDDRIDAHYQPILRLDTREIVGFEALCRMTTPSGEIIAAAHFHEATKDAHIAAELTQRMLLRVARDIRSWLARGLPLQHVGINLSAADFRGGNLQDRLCRIFGEAEVPLKHIILEVTESVYLGQRDYVVADEIKALRSKGLRVALDDFGTGYASLTHLLTVPVDIIKIDKSFIDRMVPGDAGTFIVEGLIGIADKLGIRVVAEGIETELQAVQLSQLGCKLGQGYLFSKAVDRTVAAAILEQHGQRLDQDKTRAGAL
- protein production: failed

Sequence: MILFSPVARDSAAGQAAALRAPVSLQDDTLKIFGFDDQSVGQPLSGGTDILACLTLFNEPAEAVAGTLAFLAANQDMLASRNGPIQRLEVAIVLDGRDRVHPETEALFNRLGFDLDWGCDPEAAGIGQHGADEAQVRVQTRLIPVDLLTGVSGNPLRVHLAVKDRNRGKLDSHAFFFRSLAERLQPDFVLQIDAGSRPVADCLPALLAQMEREPDCAALATNIVMEDAALTDWLQSWQQADFLWQKLSDWPIGNGLGYLEVVPGQASLLRMSALRRGANGDPLAAYLRGLSRPKSLMEANLFLAEDRIIGAEIVKSHPACTIRYHHDANLVTDGCATVGELLRQRRRWTNSTLVARLVAIGSLADLLWHGRLPPARWCSMALALAWTLLQLLEQWFIPASLALLVSLTSGFWQDEAKNGVAGQGLAWGMATGVLLFWLYCLASMKGREGERSLSRRLHGGLHGLGLGILLACTVLGFAICLVEVGPVIQGAILTVALILGMAVWHHSSRGMSDLLRVFVLYIPSAPVASFYLLSYALANFHDVSWGTKGLVGDIKAVIPAGWRRMRLRLLILWVVSNTALVWLVMGVVPGGAISVLHYACLPVVGQIAIASLLLLSASCRKPVSPSPEVTVRAGSGPHLHR
- protein production: failed

Sequence: MILIRYLIKEVFKSQIAILLILLLIFFSQQFVRVLGAAANGNVPADLVFSLLGLGMPTMAQLMLPLCLFIAILLTFGRLYAESEITVMRACGVGQRILVKVALIMSLLTAGIAAYNALWLSPWAIQKQVNMVEDAKANPTVGVLSSGQFISTNNNNVVLFIDKIKDNQIRNVYLFQMTPQKQTKPSVITAEKGELIALPNGDQVLNLKNTKRVEGTSALPDFRITHFDEYHAYLGYQSAENTNDEVAELTLSQLIDLDSSSAKAELHWRITLILAVPLMALIAVPLSRVNPRQGRFAKILPALLLYLIYFLLQSSFKSAGSAGKLEAELLMPLVNIGFFLLAVVLNSWDSEIMYKFRYLFSKKGSAKDDKYP
- protein production: failed

Sequence: MILLEGSYREMGRQYGGLMKTELLSEYAMLTKTLEDRGYSLDYLRWYASAGTQFQPERMKEITRGMAETTGLSEADLSILYYGPALYISMPAGCSYLAVWDTYTTDGSVVLSRNWDLPDLLDPFNPYYVLAVCRPTDGSNGVATFGPAGSRPETLMNSAGLFIADDNSGLAPVGQDDRPDLISEFFRLMLDYSDLDGLKTGVLTTRPDVAWIVDVGGPDGAYVFEVGLNETKVRIGDGVVAAANHFVDPSWDLTTPPGEHSLTRYANLLSQAEAAKGSIDAEEMMQIRDVLMTDDGATFRHSELFGYPYSSNHQVVFVPATRTLWMKVIDLDWQKVELAPLFAM
- protein production: failed

Sequence: MILLTYLIGILIGLSLTAPPGPVNSVISTESMKSKAHGVSVGAGAMTADLVFFVIVFRFGAFIPVLALHALYLAGAVLLLYISYSVLKSKISRRTRKGNYLVGLTMGITNPFQILWWMTVGLFFIRYFHIASIAGLFTGIIIWILSFPFVMNKYARRFERYVKIFSFAVLFSFAIYLLYSGVVYFLR
- protein production: failed

Sequence: MILLVPILIITLMYFMFENVPHRPGTPSGFNTACLVLLGLFPLFVMFVITAITMQRERASGTLERILTTPLRRLDLLAGYGTAFSIAAAAQATLACIVAFWFLGFDTAGSPVWVFAIAIVNAVLGVGLGLLCSAFARTEFQAVQFIPLVMVPQLLLAGIIVPRALMPTWLEWISNVMPASYALEALQQVGAHPELTGIAVRDVVVVLSFAVASLCLAAVTLRRRTS
- protein production: failed

Sequence: MILLYLHIYEQKGSGTLNPVAFTLFGLEIRWYGILIATGVILGLFMAYSNSKLREIEYDSVLDIILISLPIGIIGARLYYVIFQFKSYNGNIIDMINIRNGGLAIHGGLIFGCLAAYIYSRYKKLSFLKLMDIAAPSIILAQALGRWGNFFNGEAHGGPVTYSFIEKFPKFIQKGMTIDGMYYNPTFLYESTWDFVTFIILMLLIRKCKNKGVVFFGYVGLYSLGRFFIEGMRTDSLMLGPIRVAQLVSILGMLISLGFITFSYVKTKRISK
- protein production: failed

Sequence: MILPWLILIPFIGGLLCWLGERFGSTLPRWIALLTMTLELALGLWLWATGNFGYAPVPGADPTWALEFHHPWITRFGIDVHLALDGLSLLMILLTGLLGVLSVLCSWKEIQRKVGFFHLNLMWILGGVVGVFLAIDLFMFFFFWEMMLVPMYFLIALWGHSSSDGKKTRIYAATKFFIFTQASGLIMLVAILGLVLVHFNQTGVITFAYADLLKTKLAPGTEYILMLGFFIAFAVKLPVVPLHSWLPDAHAQAPTAGSVDLAGILLKTAAYGLLRFALPLFPNASAEFAPIAMALGLVGIFYGAFLAFAQTDIKRLIAFSSVSHMGFVLIGIYSGSQQALQGVLIQMIAHGLSAAALFILSGQLYERLHTRDMREMGGLWSRIAYIPAISLFFAAASLGLPGTGNFVGEFLILLGSFASAPWITAIATSGLVFGSVYSLIMIHRAYFGPAKSDEVLKGMDGREMIMVLGLAVLLVVLGVFPQPFLDTSAATMHGVQQWLGTAFTQLASAR
- protein production: not failed

Sequence: MILRSWARGVTLATICMFSLSSGVILAKNNRPTPLPTYQYPDVYNNYLQPVATAIDYHSGMVYLFNYENDKLIIVDPTSLSGWPGNVPLQHTLVFPEGDKIFITSDNTEEHAAYIIILKVNDINWDAGTVSLAVETVVAADNPGTPTEFPFVEPVNNVQAIPNWLVGRGTTQIHGPTILPYSDFVYLTELTSDRIRVINRKTNEFVSGVDPIAIPGYTEQTHGINFNRSGTIGLGTGYFFDNSVIDVYKPNRETGELQTIGQIRLGDEKRHAAFTHFVYWLDERYAVTASMQFDKTSLTPTTTKKIIPPSVWLLDTLEGTATKILDHTNHANGKGIFRSPSDIAVVNGKLYIAEEDSLDYTFANDGYISVFDLTDRYKPRFLKRLKPGRELPTGYAVAHTISPTPDNRYLIVASWVSGYVLKIDTETDTVVKIWGPNDGLIKPHGIYTAGGLR
- protein production: failed

Sequence: MILSIDSNDANTAPLHKKTISSLSGAVESMMKKLEDVGVLVARILMPILFITAGWGKITGYAGTQQYMEAMGVPGFMLPLVILLEFGGGLAILFGFLTRTTALFTAGFTLLTAFLFHSNFAEGVNSLMFMKNLTISGGFLLLAITGPGAYSIDRLLNKKW
- protein production: failed

Sequence: MILSNYPLRDRKDSTMGSKTKIVVIRCKELIAGIILSVIALAILALIVISLMNRNTHDTTPPSGRYTAGVYSSSVILNGNPVDIRVTVDEDNINNIEMVNISDSVTTMYPLIQNSFEEIKSSVIANGGVEGVTYSSENKYTSVMILKAIENALDKCRTY
- protein production: failed

Sequence: MILTLLQNGDYETARTQALTELKNNSDNAELHYYAAWAHDALGKEDAAIPFYEKALQLGLPADSRKEAYIGLGSTYRITGQPEKSIRLFETALQEFPDNNALRTFSVMAKYNQGLEKEALEEALMLLTQTTSDEDILSYKKAIQFYAQDLDATFHLEHHHHHH
- protein production: not failed

Sequence: MILVATKPKDSRGSSSDEMMMNDLDEIIFGENSLGHSSSASGNDQKKQKSSKNNELIHL
- protein production: failed

Sequence: MIMKKYWKLMLMAVGMSAAFTLASCNDDKDVVIDQIYYISTDPSATTYPTTFSVSLVDNSVAGRPFFYVVGKSTMRVDRNTTLRVEEDSKLVEKYNETYGKKYLPFPEGTYSFSTNEVTINQGDNFSSDTIFISFSNWDKLSKIDKYLLPVSLKAVDDKGAVSMDRNLIYFIADFSTTNTGYNKPAAWKPLDRTDWDVSFSYAYGYDEAQFGGRLAVDGDVSTTWFTWGVVSAGECWWATTLPAPTHLTGFSLTRQTTFGSSYNVREAKVKVKKEGDTEWTEAGLFRFGSFKGNDPQYAVFIPAVENVKEFRIDIVSPADFTGFAELDLYQ
- protein production: failed

Sequence: MIMLNKQGITISLCMIVRDEEETIARCLETVEKIVDEIIVVDTGSVDRTKEIVEKYTSNIYDFQWIDDFAAARNFSFSKATQEYILWLDADDVLLEDAQEALKLLKRELDPKIDAVSMPYHLAMDSNGKPLYCTKRNRLVKREKQFQWFGKVHEYLAISGEVFSSNVAITHKKEKKVTNRNLKIFQNTVAAGEELSPRDLFYYANESTDNQKYDDAVLLYETFLNQDEGWYEEKIYACGKLGDCYAKLGMWEKAIESCVKSFRYDVPRGENCTRIGYIYMEQEKYNEAIFWFKLATEVPMATESPFHSPASYTWLPYLQMCICYSRLGEQDKAYYYNELAASYVPNNAAIEYNRKYFRGVFDKPYKV
- protein production: failed

Reference: a protein production outcome set (Wang et al. 2014)
